Data: patent US20240391954A1, “MC4R AGONIST PEPTIDES” (The Regents of the University of Michigan, priority 2021, published 2024)
Positions of bridges follow the written chain, without caps; N, C: chain ends. Non-standard residues stand in square brackets, D forms with d. Cit = NC(=O)NCCC[C@H](N)C(=O)O; Aib = CC(C)(N)C(=O)O

B1: CTX-1650 (peptide)
peptide: {CH2CO}-[Aib]H[dF]RFC-NH2
modifications: thioether N-6
SMILES: CC1(C)NC(=O)CSC[C@@H](C(N)=O)NC(=O)[C@H](Cc2ccccc2)NC(=O)[C@H](CCCNC(=N)N)NC(=O)[C@@H](Cc2ccccc2)NC(=O)[C@H](Cc2c[nH]cn2)NC1=O
B2: CTX-1635 (peptide)
peptide: Ac-C[Aib]R[dF]RFC-NH2
modifications: disulfide 1-7
SMILES: CC(=O)N[C@H]1CSSC[C@@H](C(N)=O)NC(=O)[C@H](Cc2ccccc2)NC(=O)[C@H](CCCNC(=N)N)NC(=O)[C@@H](Cc2ccccc2)NC(=O)[C@H](CCCNC(=N)N)NC(=O)C(C)(C)NC1=O
B3: CTX-1645 (peptide)
peptide: {CH2CO}-GR[dF]RWC-NH2
modifications: thioether N-6
SMILES: N=C(N)NCCC[C@@H]1NC(=O)CNC(=O)CSC[C@@H](C(N)=O)NC(=O)[C@H](Cc2c[nH]c3ccccc23)NC(=O)[C@H](CCCNC(=N)N)NC(=O)[C@@H](Cc2ccccc2)NC1=O
B4: CTX-1629 (peptide)
peptide: Ac-CGR[dF]RWC-NH2
modifications: disulfide 1-7
SMILES: CC(=O)N[C@H]1CSSC[C@@H](C(N)=O)NC(=O)[C@H](Cc2c[nH]c3ccccc23)NC(=O)[C@H](CCCNC(=N)N)NC(=O)[C@@H](Cc2ccccc2)NC(=O)[C@H](CCCNC(=N)N)NC(=O)CNC1=O
B5: CTX-1633 (peptide)
peptide: Ac-C[Aib][Cit][dF]RWC-NH2
modifications: disulfide 1-7
SMILES: CC(=O)N[C@H]1CSSC[C@@H](C(N)=O)NC(=O)[C@H](Cc2c[nH]c3ccccc23)NC(=O)[C@H](CCCNC(=N)N)NC(=O)[C@@H](Cc2ccccc2)NC(=O)[C@H](CCCNC(N)=O)NC(=O)C(C)(C)NC1=O
B6: CTX-1643 (peptide)
peptide: {CH2CO}-[dA][Cit][dF]RWC-NH2
modifications: thioether N-6
SMILES: C[C@H]1NC(=O)CSC[C@@H](C(N)=O)NC(=O)[C@H](Cc2c[nH]c3ccccc23)NC(=O)[C@H](CCCNC(=N)N)NC(=O)[C@@H](Cc2ccccc2)NC(=O)[C@H](CCCNC(N)=O)NC1=O
B7: CTX-1632 (peptide)
peptide: Ac-C[Aib]R[dF]RWC-NH2
modifications: disulfide 1-7
SMILES: CC(=O)N[C@H]1CSSC[C@@H](C(N)=O)NC(=O)[C@H](Cc2c[nH]c3ccccc23)NC(=O)[C@H](CCCNC(=N)N)NC(=O)[C@@H](Cc2ccccc2)NC(=O)[C@H](CCCNC(=N)N)NC(=O)C(C)(C)NC1=O
B8: CTX-1644 (peptide)
peptide: {CH2CO}-GH[dF]RWC-NH2
modifications: thioether N-6
SMILES: N=C(N)NCCC[C@@H]1NC(=O)[C@@H](Cc2ccccc2)NC(=O)[C@H](Cc2c[nH]cn2)NC(=O)CNC(=O)CSC[C@@H](C(N)=O)NC(=O)[C@H](Cc2c[nH]c3ccccc23)NC1=O
B9: CTX-1630 (peptide)
peptide: Ac-CG[Cit][dF]RWC-NH2
modifications: disulfide 1-7
SMILES: CC(=O)N[C@H]1CSSC[C@@H](C(N)=O)NC(=O)[C@H](Cc2c[nH]c3ccccc23)NC(=O)[C@H](CCCNC(=N)N)NC(=O)[C@@H](Cc2ccccc2)NC(=O)[C@H](CCCNC(N)=O)NC(=O)CNC1=O
B10: CTX-1636 (peptide)
peptide: Ac-C[Aib][Cit][dF]RFC-NH2
modifications: disulfide 1-7
SMILES: CC(=O)N[C@H]1CSSC[C@@H](C(N)=O)NC(=O)[C@H](Cc2ccccc2)NC(=O)[C@H](CCCNC(=N)N)NC(=O)[C@@H](Cc2ccccc2)NC(=O)[C@H](CCCNC(N)=O)NC(=O)C(C)(C)NC1=O
B11: CTX-1634 (peptide)
peptide: Ac-C[Aib]H[dF]RFC-NH2
modifications: disulfide 1-7
SMILES: CC(=O)N[C@H]1CSSC[C@@H](C(N)=O)NC(=O)[C@H](Cc2ccccc2)NC(=O)[C@H](CCCNC(=N)N)NC(=O)[C@@H](Cc2ccccc2)NC(=O)[C@H](Cc2c[nH]cn2)NC(=O)C(C)(C)NC1=O
B12: CTX-1647 (peptide)
peptide: {CH2CO}-[Aib]H[dF]RWC-NH2
modifications: thioether N-6
SMILES: CC1(C)NC(=O)CSC[C@@H](C(N)=O)NC(=O)[C@H](Cc2c[nH]c3ccccc23)NC(=O)[C@H](CCCNC(=N)N)NC(=O)[C@@H](Cc2ccccc2)NC(=O)[C@H](Cc2c[nH]cn2)NC1=O
B13: CTX-1639 (peptide)
peptide: Ac-CG[Cit][dF]RFC-NH2
modifications: disulfide 1-7
SMILES: CC(=O)N[C@H]1CSSC[C@@H](C(N)=O)NC(=O)[C@H](Cc2ccccc2)NC(=O)[C@H](CCCNC(=N)N)NC(=O)[C@@H](Cc2ccccc2)NC(=O)[C@H](CCCNC(N)=O)NC(=O)CNC1=O
B14: CTX-1638 (peptide)
peptide: Ac-CGR[dF]RFC-NH2
modifications: disulfide 1-7
SMILES: CC(=O)N[C@H]1CSSC[C@@H](C(N)=O)NC(=O)[C@H](Cc2ccccc2)NC(=O)[C@H](CCCNC(=N)N)NC(=O)[C@@H](Cc2ccccc2)NC(=O)[C@H](CCCNC(=N)N)NC(=O)CNC1=O
B15: CTX-1642 (peptide)
peptide: {CH2CO}-[dA]R[dF]RWC-NH2
modifications: thioether N-6
SMILES: C[C@H]1NC(=O)CSC[C@@H](C(N)=O)NC(=O)[C@H](Cc2c[nH]c3ccccc23)NC(=O)[C@H](CCCNC(=N)N)NC(=O)[C@@H](Cc2ccccc2)NC(=O)[C@H](CCCNC(=N)N)NC1=O
B16: CTX-1646 (peptide)
peptide: {CH2CO}-G[Cit][dF]RWC-NH2
modifications: thioether N-6
SMILES: N=C(N)NCCC[C@@H]1NC(=O)[C@@H](Cc2ccccc2)NC(=O)[C@H](CCCNC(N)=O)NC(=O)CNC(=O)CSC[C@@H](C(N)=O)NC(=O)[C@H](Cc2c[nH]c3ccccc23)NC1=O
B17: CTX-1649 (peptide)
peptide: {CH2CO}-[Aib][Cit][dF]RWC-NH2
modifications: thioether N-6
SMILES: CC1(C)NC(=O)CSC[C@@H](C(N)=O)NC(=O)[C@H](Cc2c[nH]c3ccccc23)NC(=O)[C@H](CCCNC(=N)N)NC(=O)[C@@H](Cc2ccccc2)NC(=O)[C@H](CCCNC(N)=O)NC1=O
B18: CTX-1648 (peptide)
peptide: {CH2CO}-[Aib]R[dF]RWC-NH2
modifications: thioether N-6
SMILES: CC1(C)NC(=O)CSC[C@@H](C(N)=O)NC(=O)[C@H](Cc2c[nH]c3ccccc23)NC(=O)[C@H](CCCNC(=N)N)NC(=O)[C@@H](Cc2ccccc2)NC(=O)[C@H](CCCNC(=N)N)NC1=O

These binders were tested against T1, human MC4R receptor (human, UniProt P32245 1-332) (assay: cell-based or functional assay).
T1 sequence (P32245 whole entry): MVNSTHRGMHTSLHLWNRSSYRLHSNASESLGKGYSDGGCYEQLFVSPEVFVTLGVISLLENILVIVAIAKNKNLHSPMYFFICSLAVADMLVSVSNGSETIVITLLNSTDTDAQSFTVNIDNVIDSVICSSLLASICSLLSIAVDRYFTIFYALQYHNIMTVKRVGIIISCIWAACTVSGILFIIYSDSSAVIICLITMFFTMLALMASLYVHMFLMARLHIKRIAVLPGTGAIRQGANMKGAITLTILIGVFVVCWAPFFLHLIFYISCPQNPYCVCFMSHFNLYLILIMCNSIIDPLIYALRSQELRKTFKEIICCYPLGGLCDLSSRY

Binder | % max activation [%] | cAMP EC50 [nM]
B1 | 113 | 288
B2 | 112 | 67
B3 | 110 | 1.6
B4 | 102 | 0.67
B5 | 110 | 2.8
B6 | 111 | 19
B7 | 105 | 0.51
B8 | 111 | 2.3
B9 | 102 | 22
B10 | 102 | 791
B11 | 107 | 8.5
B12 | 109 | 0.68
B13 | 88 | 2730
B14 | 110 | 351
B15 | 107 | 2.9
B16 | 103 | 13
B17 | 97 | 6.6
B18 | 101 | 1.1

Each binder was assayed against human MC3R (human, UniProt P41968 1-323) (assay: cell-based or functional assay).
human MC3R, sequence (P41968 whole entry): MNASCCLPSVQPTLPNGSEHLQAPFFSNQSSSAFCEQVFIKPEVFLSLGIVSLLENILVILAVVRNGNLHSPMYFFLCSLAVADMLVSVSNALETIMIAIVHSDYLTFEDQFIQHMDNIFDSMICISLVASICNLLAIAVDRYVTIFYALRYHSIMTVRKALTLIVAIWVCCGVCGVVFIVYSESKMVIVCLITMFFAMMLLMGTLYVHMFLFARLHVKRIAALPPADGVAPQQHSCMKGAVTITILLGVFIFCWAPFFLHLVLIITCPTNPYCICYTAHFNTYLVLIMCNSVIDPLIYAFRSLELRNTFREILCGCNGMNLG

Binder | % max activation [%] | cAMP EC50 [nM]
B1 | 125 | 15200
B2 | 70 | 380
B3 | 97 | 68
B4 | 83 | 13
B5 | 45 | 290
B6 | 81 | 2550
B7 | 77 | 19
B8 | 107 | 120
B9 | 35 | 614
B10 | 44 | 7460
B11 | 94 | 56
B12 | 102 | 21
B13 | 44 | 7690
B14 | 75 | 408
B15 | 90 | 83
B16 | 70 | 2420
B17 | 79 | 479
B18 | 91 | 72

Molecular target: T1, human MC4R receptor
Assay: cell-based or functional assay
Remark: another data set of the same source

Binder | MC4R selectivity vs MC1R | MC4R selectivity vs MC3R
B1 | 0.95 | 53
B2 | 1.19 | 5.7
B3 | 9.04 | 42
B4 | 15 | 19
B5 | 942 | 104
B6 | 261 | 133
B7 | 3.18 | 36
B8 | 4.84 | 53
B9 | 1820 | 28
B10 | > 12 | 9.44
B11 | 4.02 | 6.68
B12 | 3.66 | 30
B13 | 8.32 | 2.82
B14 | 1.04 | 1.66
B15 | 13 | 29
B16 | > 770 | 193
B17 | 1650 | 72
B18 | 13 | 63
